Measurements published in the supplement of paper PMC9732359.
± gives the uncertainty stated by the source.

Assay: protein stability index of a GFP-peptide fusion (yeast GPS) (PSI 1-4); higher = more stable; sorted into four equal gates, so the index is relative within each strain
In short: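 Tiled 17-residue peptides from yeast proteins were fused downstream of GFP on a plasmid that also expresses Cherry, and the pooled library was carried in yeast. Mid-log cultures grown in leucine-free medium were sorted into four equal gates by GFP/Cherry fluorescence ratio. Plasmids from each gate were PCR-amplified and Illumina-sequenced, and reads were assigned to strains by barcodes. Each peptide's protein stability index is the sum, over gates, of the gate's read frequency multiplied by its gate number.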

Row | Sequence | protein stability index (doa10∆) | protein stability index (pdr5∆) | protein stability index (san1∆) | protein stability index (ubr1∆)
1 | LNSLLTYIKSEITQQEK [SMC4] | 2.77 ± 0.066 | 2.04 ± 0.055 | 2.73 ± 0.071 | 2.63 ± 0.06
2 | VPKSIAKTLTYPEVVTP [RPO21] | 2.51 ± 0.05 | 2.76 ± 0.044 | 2.39 ± 0.039 | 2.62 ± 0.047
3 | EDEENSDVLLFQLPTTC [RGR1] | 2.63 ± 0.044 | 2.27 ± 0.035 | 2.63 ± 0.041 | 2.35 ± 0.024
4 | IDDKGVLMERKDERGEG [ITC1] | 3 ± 0.21 | 3.5 ± 0.18 | 3 ± 0.15 | 3.02 ± 0.21
5 | YSLLLASKGIDRLSLQD [ECM29] | 2.45 ± 0.2 | 3.23 ± 0.16 | – | 2.83 ± 0.11
6 | LRIGRIEDVTPVPSDST [RPS14B] | 2.91 ± 0.037 | 2.98 ± 0.043 | 2.78 ± 0.04 | 2.92 ± 0.037
7 | DERIEKELNTERQIFLE [CDC53] | 2.9 ± 0.1 | 3.09 ± 0.12 | 3.13 ± 0.097 | 3.12 ± 0.086
8 | DELEDDTLNETNLKMKR [RRP43] | 3.18 ± 0.093 | 3.25 ± 0.082 | 3.26 ± 0.075 | 3.36 ± 0.098
9 | RKIVFRCSECIKILGSE [RPN4] | 1.22 ± 0.14 | 1.88 ± 0.25 | – | –
10 | PQVKIREASKDNVDFIL [RPB3] | 2.55 ± 0.065 | 2.12 ± 0.033 | 2.88 ± 0.073 | 1.77 ± 0.037
11 | DRELSVRNACKRLIAHD [YCG1] | 2.59 ± 0.097 | 2.77 ± 0.27 | 2.49 ± 0.26 | 2.67 ± 0.18
12 | SNIDIRVRVTGGGHVSQ [RPS16A] | 2.02 ± 0.093 | 2.31 ± 0.063 | 2.78 ± 0.13 | 2.08 ± 0.044
13 | VSPTNVMGTPLTNMMSP [PGD1] | 2.77 ± 0.1 | – | 2.92 ± 0.091 | 3.26 ± 0.093
14 | REFLKVDQEMLYEIILA [SKP1] | 2.81 ± 0.066 | 2.85 ± 0.065 | 2.86 ± 0.096 | 2.96 ± 0.051
15 | RRNRYKTYYGIHCLAVR [RPN7] | 1.23 ± 0.05 | 1.38 ± 0.073 | 1.29 ± 0.13 | 1.17 ± 0.044
16 | IQGFYWAVKEGPLAEEP [SNU114] | 1.58 ± 0.089 | 1.35 ± 0.086 | 1.27 ± 0.21 | 1.22 ± 0.04
17 | MELSPTYQTERFTKFSD [YDL116W/NUP84] | 3.09 ± 0.13 | 2.74 ± 0.17 | – | 2.79 ± 0.22
18 | LKIFQEQSLEVFIFPTS [SRB8] | 2.12 ± 0.083 | 1.96 ± 0.054 | 2.29 ± 0.056 | 2.28 ± 0.041
19 | TSNKEGFNSIWKIPQND [SSN2] | 3.29 ± 0.26 | 3.72 ± 0.3 | 3.45 ± 0.15 | –
20 | KYPLGHFVRDLGTIESA [DIS3] | 2.56 ± 0.097 | 2.43 ± 0.1 | 2.85 ± 0.15 | 2.58 ± 0.19
21 | GFIETTELLNIYDSEDP [RPN3] | 2.71 ± 0.091 | 3.01 ± 0.095 | 2.85 ± 0.084 | 3.06 ± 0.075
22 | LNEFFTRELAEEGYSGV [RPS3] | 2.5 ± 0.22 | 1.82 ± 0.12 | 1.44 ± 0.15 | 1.68 ± 0.11
23 | QVSKKLSSIEASLKIKN [SMC3] | 1.67 ± 0.069 | 1.7 ± 0.085 | 2.44 ± 0.12 | 2.27 ± 0.08
24 | PNCLFILKLLNGFMESA [SOH1] | 1.9 ± 0.17 | 1.54 ± 0.12 | 1.68 ± 0.18 | 1.44 ± 0.18
25 | QIVKYARKGLTPSQIGV [RPS13] | 3.12 ± 0.068 | 2.97 ± 0.086 | 2.47 ± 0.082 | 2.83 ± 0.086
26 | ELIVSEEIPINSSEQES [SIR3] | 2.28 ± 0.054 | 2.24 ± 0.051 | 2.82 ± 0.053 | 2.18 ± 0.037

Row | Sequence | protein stability index (doa10∆) | protein stability index (pdr5∆) | protein stability index (san1∆) | protein stability index (ubr1∆)
27 | NNLHELWALLNFLLPDI [ISW2] | 2.59 ± 0.052 | 2.07 ± 0.049 | 1.89 ± 0.07 | 2.63 ± 0.041
28 | LKVDPDMLTWVDSNLPD [RPC40] | 3.02 ± 0.082 | 3.13 ± 0.062 | 2.54 ± 0.16 | 3.26 ± 0.073
29 | AIVCYILFELYKIKGRN [SRP72] | 2.01 ± 0.056 | 2.13 ± 0.059 | 2.69 ± 0.059 | 2.15 ± 0.054
30 | ERQIFLEACIVRIMKAK [CDC53] | 1.64 ± 0.051 | 1.69 ± 0.048 | 1.48 ± 0.076 | 1.61 ± 0.037
31 | GINQILGNEKNQASTSK [CDC53] | 3.08 ± 0.15 | 3.25 ± 0.14 | 3.11 ± 0.092 | 3.2 ± 0.073
32 | RSGALIKFKKCDGDTVW [SSN2] | 2.85 ± 0.053 | 2.9 ± 0.048 | 2.62 ± 0.048 | 2.71 ± 0.043
33 | LEVGKNNFCALYNLSNP [RPN14] | 1.58 ± 0.092 | 1.2 ± 0.14 | 1.43 ± 0.15 | 1.13 ± 0.046
34 | EIAFHLTLIFYDVLHDV [YML103C/NUP188] | 1.26 ± 0.072 | 1.47 ± 0.055 | 1.63 ± 0.17 | 1.99 ± 0.086
35 | NKKDKKKEEEEQLSEED [RPN1] | 3.55 ± 0.21 | 3.76 ± 0.23 | 3.28 ± 0.13 | 3.36 ± 0.15
36 | FLRKATAFNKTRGPFHF [RPL16B] | 3 ± 0.042 | 3.12 ± 0.045 | 2.78 ± 0.043 | 3.08 ± 0.033
37 | KDLENAQVEMKSLEEQE [SMC1] | 3.43 ± 0.14 | 3.12 ± 0.1 | 3.37 ± 0.085 | 3.3 ± 0.081
38 | KFSDIIQGISKMYSDDT [BRN1] | 2.93 ± 0.062 | 2.71 ± 0.066 | 2.14 ± 0.08 | 2.3 ± 0.085
39 | VEELMKKRRGSRIYKTI [SNU114] | 1.86 ± 0.048 | 1.75 ± 0.053 | 1.62 ± 0.088 | 1.83 ± 0.053
40 | FILIPLYKIFSYALSME [SNU114] | 1.65 ± 0.042 | 1.45 ± 0.037 | 1.46 ± 0.075 | 1.68 ± 0.031
41 | ATAALEIILKLCRNPLT [YJL039C/NUP192] | 2.03 ± 0.065 | 1.95 ± 0.063 | 1.25 ± 0.098 | 2.38 ± 0.059
42 | VNDKYKTCAEVIGGNSL [SMC3] | 3.06 ± 0.14 | 3.15 ± 0.16 | 3.29 ± 0.11 | 3.21 ± 0.15
43 | DQNNATMGEETAKKDMS [SNF12] | 3.44 ± 0.082 | 3.34 ± 0.11 | 3.21 ± 0.12 | 3.32 ± 0.09
44 | IQRGRILPTDGSAEFNV [RPB7] | 2.8 ± 0.14 | 3.05 ± 0.086 | 3.03 ± 0.081 | 2.79 ± 0.075
45 | ESDAPPKSTAPIFSFGK [YOR098C/NUP1] | 2.72 ± 0.044 | 2.58 ± 0.044 | 2.71 ± 0.042 | 2.76 ± 0.038
46 | PRLDDVVVDTVECAQHC [SMC4] | 3.22 ± 0.1 | 3.31 ± 0.13 | 3.17 ± 0.092 | 2.75 ± 0.13
47 | QKSTELLIRKLPFQRLV [HHT1] | 1.26 ± 0.14 | 1.12 ± 0.17 | 1.17 ± 0.21 | 1.3 ± 0.16
48 | KDGETTDANGKTIVTGG [RPO26] | 3.39 ± 0.076 | 3.32 ± 0.047 | 3.37 ± 0.059 | 3.33 ± 0.047
49 | EAFGNIKIDAKPALFER [MCD1] | 2.11 ± 0.083 | 2.89 ± 0.15 | 1.84 ± 0.21 | 2.58 ± 0.078
50 | VILQSDLEEAYATQVKT [RPT3] | 2.2 ± 0.1 | 2.57 ± 0.069 | 2.3 ± 0.083 | 2.53 ± 0.068
51 | ELKKKRKIKRLEKFLQG [SRP72] | 3.22 ± 0.073 | 3.24 ± 0.091 | 3.19 ± 0.09 | 3.25 ± 0.049
